Measured values reported in article PMC13042608, “Cross‐Platform Biosensing of Immune Receptors Using Peptide‐Functionalized Graphene” (Advanced Science, 2025).
Non-standard residues stand in square brackets, D forms with d. No end group written: not given here.

Biological target: T1, WKYMVm‐NH2
T1 construct: synthetic hexapeptide agonist of formyl peptide receptors; also called W‐peptide; target peptide; source: synthetic peptide (custom peptide synthesis, purity >95%)
T1 peptide: WKYMV[dM]-NH2
Test: SPR; graphene-enhanced MP-SPR; peptide immobilised on PBA-graphene by amine coupling; nucleofected HEK293T cells (≈100 cells mL^-1) injected at 10 µL min^-1 for 20 min in C1 buffer pH 7.4; 22 °C
Settings: one partner purified

B1: Formyl peptide receptor 2 (FPR2) on transfected HEK293T cells (receptor, human, UniProt P25090 1-351, looked up)
chain: METNFSTPLNEYEEVSYESAGYTVLRILPLVVLGVTFVLGVLGNGLVIWVAGFRMTRTVTTICYLNLALADFSFTATLPFLIVSMAMGEKWPFGWFLCKLIHIVVDINLFGSVFLIGFIALDRCICVLHPVWAQNHRTVSLAMKVIVGPWILALVLTLPVFLFLTTVTIPNGDTYCTFNFASWGGTPEERLKVAITMLTARGIIRFVIGFSLPMSIVAICYGLIAAKIHKKGMIKSSRPLRVLTAVVASFFICWFPFQLVALLGTVWLKEMLFYGKYKIIDILVNPTSSLAFFNSCLNPMLYVFVGQDFRERLIHSLPTSLERALSEDSAPTNDTAANSASPPAETELQAM
notes: formyl peptide receptor 2, human, gene amplified from human genomic DNA and cloned into pcDNA3.1(+); also called HEK FPR2; HEK‐FPR2; source: nucleofection with a GFP plasmid for biosensors), on living cells
SPR signal relative to the Control peptide (f-MEQQNK) surface: ~4 fold
